1 molecule from publication PMC4418518 (2015) can be followed below.

What all share (experiment): co-sedimentation
The target in assay [1] is T1, F-actin (Saccharomyces cerevisiae, UniProt P60010).
For assay [2], the target named is T1, F-actin. This is another data set of the same source.
Another assay deals with actin (Saccharomyces cerevisiae, UniProt P60010).

Read-outs that look alike come from different tables or passages of the source.

B1: Vinculin tail (VT) 881-1066 (protein)
chain: KDEEFPEQKAGEAINQPMMMAARQLHDEARKWSSKPVTVINEAAEAGVDIDEEDDADVEFSLPSDIEDDYEPELLLMPTNQPVNQPILAAAQSLHREATKWSSKGNDIIAAAKRMALLMAEMSRLVRGGSGNKRALIQCAKDIAKASDEVTRLAKEVAKQCTDKRIRTNLLQVCERIPTISTQLKI
As a reminder, the Kd is the free concentration of one partner at which half of the binding sites on the other are occupied at equilibrium, for simple one-to-one binding. A higher Kd goes with lower affinity. With B1, the equilibrium dissociation constant (Kd) was found to be 1480 nM in the assay with F-actin [1], 1310 nM in the assay with F-actin [2] and 370 nM with actin.
